Earlier results, collected in patent US20070276019A1, “Haloalkyl Containing Compounds as Cysteine Protease Inhibitors” (Axys Pharmaceuticals, Inc., priority 2003, published 2007).

Settings: clinical trials

For “OKT3: murine monoclonal antibody directed towards CD-3 domain of activated T-cells”, the “patients administered OKT3 that produce antibodies versus the therapy” value is listed as 20-40%.
